Experiments:
GPR56^N = target: T1, GPR56^N (Mus musculus, UniProt Q8K209); assay: In vitro biotinylation/proteomics pull-down from mixed glial cell lysate with mass spectrometry; details: peptide sequences specific for binding to GPR56^N
T1 construct: Using the soluble N-terminal fragment of GPR56 (GPR56^N); made in house
From the text: To identify the ligand of GPR56 in OPCs, an in vitro biotinylation/proteomics approach was employed using single-step capture on streptavidin beads to purify the binding partner(s) of GPR56 (FIGS. 2A-2B). Proteins with more than five identified tryptic peptides in the Mass Spectrometry (MS) output from three independent experiments are listed at Table 1.
(§1) GPR56^N and GPR56^Ndel fusions proteins with either mFc or hFc tag were generated as previously described (Luo et al. Proc Natl Acad Sci USA 108, 12925-12930, 2011). BirA enzyme was used to in vitro biotinylate GPR56^N-mFc-biotag protein as previously described (De Laurenzi and Melino Mol Cell Biol 21, 148-155, 2001). Mixed glial cell lysate was incubated with biotinylated GPR56^N protein in lysis buffer [20 mM Hepes (pH 7.3), 150 mM NaCl, and 5 mM MgCl2] with protein inhibitor mixture (Roche Molecular Biochemicals) and 1% Brij 96 (Fluka). Streptavidin beads (Sigma) were used to affinity purify immunocomplexes. GPR56-associated proteins were eluted in 2×SDS loading buffer, subjected to SDS/PAGE. The whole lane was used for MS at the Taplin Biological Mass Spectrometry at Havard Medical School. MS data were searched against the mouse International Protein Index (IPI mouse 339) database using the protein identification software Mascot (v2.2.04, Matrix Sciences) (Luo et al. Proc Natl Acad Sci USA 108, 12925-12930, 2011).
as §1, with “al.,” for “al.”, “(Stacey et al., J” for “(De Laurenzi and Melino Mol Cell”, “Chem 277, 29283-29293, 2002).” for “21, 148-155, 2001).”, “(20” for “[20”, “[pH 7.3],” for “(pH 7.3),”, “MgCl2)” for “MgCl2]”

[1] = target: Plectin (Plec), mouse, endogenous (mixed glial cell lysate) (mouse) (UniProt Q9QXS1); assay: streptavidin pull-down of biotinylated GPR56^N-mFc from mixed glial cell lysate, tryptic peptide mass spectrometry
Sequence of Plectin (Plec), mouse, endogenous (mixed glial cell lysate) (mouse) (Q9QXS1 whole entry): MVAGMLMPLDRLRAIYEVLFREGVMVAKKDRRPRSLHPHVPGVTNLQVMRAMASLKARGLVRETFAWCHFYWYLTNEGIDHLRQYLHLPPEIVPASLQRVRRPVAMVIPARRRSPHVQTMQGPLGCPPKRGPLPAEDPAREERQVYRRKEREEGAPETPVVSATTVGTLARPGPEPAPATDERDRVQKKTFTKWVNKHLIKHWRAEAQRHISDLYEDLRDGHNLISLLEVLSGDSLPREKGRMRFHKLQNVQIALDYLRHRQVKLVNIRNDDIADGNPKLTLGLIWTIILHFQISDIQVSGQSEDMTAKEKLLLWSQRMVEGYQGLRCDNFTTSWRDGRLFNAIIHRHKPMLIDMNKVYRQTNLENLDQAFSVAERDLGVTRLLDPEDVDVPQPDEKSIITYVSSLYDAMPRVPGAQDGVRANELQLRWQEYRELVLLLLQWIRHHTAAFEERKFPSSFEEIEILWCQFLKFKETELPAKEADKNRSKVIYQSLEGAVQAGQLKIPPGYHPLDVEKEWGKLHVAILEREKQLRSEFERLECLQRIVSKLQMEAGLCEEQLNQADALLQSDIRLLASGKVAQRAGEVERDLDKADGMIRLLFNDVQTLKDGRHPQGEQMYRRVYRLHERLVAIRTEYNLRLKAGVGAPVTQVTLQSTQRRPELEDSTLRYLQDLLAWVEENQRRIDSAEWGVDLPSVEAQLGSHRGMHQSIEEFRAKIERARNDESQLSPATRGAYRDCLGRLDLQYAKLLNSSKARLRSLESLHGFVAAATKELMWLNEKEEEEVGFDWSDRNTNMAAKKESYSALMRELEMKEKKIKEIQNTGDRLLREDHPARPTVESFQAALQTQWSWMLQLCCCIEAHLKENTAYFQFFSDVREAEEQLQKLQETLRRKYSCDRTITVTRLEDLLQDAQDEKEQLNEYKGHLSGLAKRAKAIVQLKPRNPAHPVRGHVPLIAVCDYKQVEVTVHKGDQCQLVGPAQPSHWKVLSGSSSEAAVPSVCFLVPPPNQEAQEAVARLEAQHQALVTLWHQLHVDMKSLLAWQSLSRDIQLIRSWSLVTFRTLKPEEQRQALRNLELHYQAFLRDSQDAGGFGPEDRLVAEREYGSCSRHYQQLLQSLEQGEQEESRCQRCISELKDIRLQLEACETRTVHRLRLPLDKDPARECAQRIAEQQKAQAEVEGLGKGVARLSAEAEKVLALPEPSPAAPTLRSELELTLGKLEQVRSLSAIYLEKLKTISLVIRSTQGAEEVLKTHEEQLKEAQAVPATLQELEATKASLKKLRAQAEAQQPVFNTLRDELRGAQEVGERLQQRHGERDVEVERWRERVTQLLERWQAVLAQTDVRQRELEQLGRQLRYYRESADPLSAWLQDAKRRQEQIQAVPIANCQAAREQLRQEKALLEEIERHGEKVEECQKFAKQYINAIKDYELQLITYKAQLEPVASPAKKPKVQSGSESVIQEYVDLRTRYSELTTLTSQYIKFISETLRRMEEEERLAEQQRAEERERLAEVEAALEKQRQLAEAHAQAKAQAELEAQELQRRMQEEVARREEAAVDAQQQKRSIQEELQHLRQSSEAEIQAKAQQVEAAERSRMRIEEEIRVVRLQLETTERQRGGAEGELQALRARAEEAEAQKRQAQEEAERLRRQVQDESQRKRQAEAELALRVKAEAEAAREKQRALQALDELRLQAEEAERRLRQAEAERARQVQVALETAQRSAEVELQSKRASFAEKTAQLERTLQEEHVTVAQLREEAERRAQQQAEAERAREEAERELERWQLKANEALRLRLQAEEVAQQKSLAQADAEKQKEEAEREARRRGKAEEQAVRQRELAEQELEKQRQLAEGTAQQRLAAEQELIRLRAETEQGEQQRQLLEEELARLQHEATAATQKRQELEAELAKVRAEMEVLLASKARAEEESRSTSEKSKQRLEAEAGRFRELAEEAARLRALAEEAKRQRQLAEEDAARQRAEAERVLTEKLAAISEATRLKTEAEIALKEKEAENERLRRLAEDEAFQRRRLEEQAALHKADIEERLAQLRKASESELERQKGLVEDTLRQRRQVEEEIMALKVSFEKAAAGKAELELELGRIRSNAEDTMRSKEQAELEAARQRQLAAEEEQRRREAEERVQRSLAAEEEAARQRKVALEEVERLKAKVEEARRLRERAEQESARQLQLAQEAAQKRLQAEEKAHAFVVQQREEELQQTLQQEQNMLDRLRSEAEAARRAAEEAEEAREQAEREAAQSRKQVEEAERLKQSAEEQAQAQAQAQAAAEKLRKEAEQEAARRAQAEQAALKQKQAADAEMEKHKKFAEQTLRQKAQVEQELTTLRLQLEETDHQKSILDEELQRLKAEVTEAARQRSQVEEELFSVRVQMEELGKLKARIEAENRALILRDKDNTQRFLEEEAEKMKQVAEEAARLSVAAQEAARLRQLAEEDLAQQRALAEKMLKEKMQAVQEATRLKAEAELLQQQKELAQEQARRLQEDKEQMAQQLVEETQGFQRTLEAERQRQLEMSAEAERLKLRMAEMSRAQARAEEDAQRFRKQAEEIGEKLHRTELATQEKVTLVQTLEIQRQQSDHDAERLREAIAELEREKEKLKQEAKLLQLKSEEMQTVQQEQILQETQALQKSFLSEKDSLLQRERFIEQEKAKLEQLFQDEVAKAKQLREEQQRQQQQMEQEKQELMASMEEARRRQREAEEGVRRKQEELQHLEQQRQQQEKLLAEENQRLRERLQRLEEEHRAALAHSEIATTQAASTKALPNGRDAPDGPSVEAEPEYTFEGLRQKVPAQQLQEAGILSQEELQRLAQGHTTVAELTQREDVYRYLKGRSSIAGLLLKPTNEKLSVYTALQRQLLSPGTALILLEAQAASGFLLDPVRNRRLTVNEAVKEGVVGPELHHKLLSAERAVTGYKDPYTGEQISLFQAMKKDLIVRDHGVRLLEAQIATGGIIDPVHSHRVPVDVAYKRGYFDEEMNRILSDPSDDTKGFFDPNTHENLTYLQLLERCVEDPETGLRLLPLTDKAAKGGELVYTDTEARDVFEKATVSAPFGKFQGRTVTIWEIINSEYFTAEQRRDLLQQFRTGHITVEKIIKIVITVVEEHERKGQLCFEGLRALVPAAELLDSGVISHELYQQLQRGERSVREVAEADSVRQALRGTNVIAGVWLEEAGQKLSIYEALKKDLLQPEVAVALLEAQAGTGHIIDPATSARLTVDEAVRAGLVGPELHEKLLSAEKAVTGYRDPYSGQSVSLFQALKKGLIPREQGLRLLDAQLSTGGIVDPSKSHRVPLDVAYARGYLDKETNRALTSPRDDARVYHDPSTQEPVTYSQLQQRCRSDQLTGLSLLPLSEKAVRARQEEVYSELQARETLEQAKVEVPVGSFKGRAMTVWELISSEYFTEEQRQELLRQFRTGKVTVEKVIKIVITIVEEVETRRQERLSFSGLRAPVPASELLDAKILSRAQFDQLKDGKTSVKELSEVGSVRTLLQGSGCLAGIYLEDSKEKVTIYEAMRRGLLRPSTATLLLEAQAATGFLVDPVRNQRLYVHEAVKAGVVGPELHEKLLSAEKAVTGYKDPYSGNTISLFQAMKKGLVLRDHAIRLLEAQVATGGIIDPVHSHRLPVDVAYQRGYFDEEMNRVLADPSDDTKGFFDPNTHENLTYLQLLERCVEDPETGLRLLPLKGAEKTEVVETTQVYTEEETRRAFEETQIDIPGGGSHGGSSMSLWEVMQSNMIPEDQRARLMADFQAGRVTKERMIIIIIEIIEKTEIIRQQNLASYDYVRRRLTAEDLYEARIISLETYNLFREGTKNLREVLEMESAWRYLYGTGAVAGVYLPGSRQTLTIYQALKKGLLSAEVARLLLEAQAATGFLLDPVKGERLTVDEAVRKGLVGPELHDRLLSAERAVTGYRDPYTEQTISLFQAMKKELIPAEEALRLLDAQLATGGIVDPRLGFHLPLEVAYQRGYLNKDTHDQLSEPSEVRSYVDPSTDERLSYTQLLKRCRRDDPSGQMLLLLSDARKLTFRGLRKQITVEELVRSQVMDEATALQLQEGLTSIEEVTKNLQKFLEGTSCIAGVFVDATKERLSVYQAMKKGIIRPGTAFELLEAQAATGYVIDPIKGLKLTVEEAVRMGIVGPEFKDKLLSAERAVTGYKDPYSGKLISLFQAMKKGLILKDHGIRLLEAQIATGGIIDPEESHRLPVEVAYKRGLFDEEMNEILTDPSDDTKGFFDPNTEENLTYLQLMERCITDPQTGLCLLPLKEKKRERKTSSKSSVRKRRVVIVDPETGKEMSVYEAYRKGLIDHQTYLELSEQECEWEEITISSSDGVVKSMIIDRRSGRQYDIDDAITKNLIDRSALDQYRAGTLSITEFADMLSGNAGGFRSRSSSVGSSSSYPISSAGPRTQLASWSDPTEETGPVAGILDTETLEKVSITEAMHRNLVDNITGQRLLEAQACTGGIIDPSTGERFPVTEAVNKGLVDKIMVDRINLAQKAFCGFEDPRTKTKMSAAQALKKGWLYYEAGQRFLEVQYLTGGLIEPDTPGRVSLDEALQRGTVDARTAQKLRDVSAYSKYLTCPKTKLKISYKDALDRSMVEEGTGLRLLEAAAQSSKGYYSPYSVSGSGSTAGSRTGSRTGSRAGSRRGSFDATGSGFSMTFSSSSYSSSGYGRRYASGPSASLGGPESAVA

[2] = target: Transglutaminase 2 (Tgm2), mouse, endogenous (mixed glial cell lysate / microglia-derived) (mouse) (UniProt P21981); assay: as above
[3] = system: oligodendrocyte precursors (OPCs); assay: OPC proliferation on laminin-111 or fibronectin with recombinant TG2; format: cell-based, mouse
From the text: P=0.70 (control vs. TG2-W241A); **P=0.0088 (TG2 vs. TG2-W241A). […] FIG. 16D depicts a Western blot of active RhoA (top panel) and total RhoA (bottom panel) in the corpus callosum (CC) of Tgm2^+/+ and Tgm2^−/− mice. FIG. 16E is a graph showing that the relative level of active RhoA to total RhoA was diminished in the CC of Tgm2^−/− mice compared to […]. *P=0.0207, unpaired t-test, N=3 per genotype. FIG. 16F depicts a Western blot of GPR56^N in the supernatant of HEK 293T cell culture after exposed to either TG2 or TG2+laminin-111 (top panel), GTP-RhoA (middle panel) and total RhoA (lower panel) in HEK 293T cell pellet exposed to either TG2 or TG2+laminin-111. FIG. 16G is a graph showing that released GPR56 NTF was increased in the presence of both TG2 and laminin-111. ***P=0.0002; One-way ANOVA followed by Tukey post-hoc test, F (2,6)=49.66, n.s. P=0.95 (control vs. TG2); ***P=0.0003 (control vs. TG2+laminin-111); ***P=0.0004 (TG2 vs. TG2+laminin-111); N=3 per treatment group. FIG. 16H is a graph showing that the relative level of GTP-RhoA to total RhoA was increased in the presence of both TG2 and laminin-111, corresponding to the increased GPR56 NTF in the supernatant. **P=0.0028; One-way ANOVA followed by Tukey post-hoc test, F (2,6)=18.19, n.s. P=0.75 (control vs. TG2); **P=0.0035 (control vs. TG2+laminin-111); **P=0.0071 (TG2 vs. TG2+laminin-111) N=3 per treatment group. Error bars are mean±s.e.m in FIGS. 16E, 16G, and 16H.
To establish conditions for mechanistic investigation of the function of TG2 on OPC GPR56 during myelination and remyelination, in vitro experiments were performed with wt and Gpr56^−/− oligodendrocyte precursors (OPCs) and human recombinant TG2. […] TG2 is an extracellular protein with intrinsic transamidation activity, capable of cross-linking ECM proteins, including laminin-111 (Aeschlimann et al., J Biol Chem 267, 11316-11321, 1992; Belkin, FEBS J 278, 4704-4716, 2011). […] To confirm that TG2 regulates OPC proliferation in a GPR56-dependent manner, OPCs derived from P5 Gpr56^+/+ or Gpr56^−/− pups were cultured in the presence of laminin-111, with or without recombinant TG2. TG2-associated proliferation was attenuated in Gpr56^−/− OPCs (FIG. 16C), further supporting a GPR56-dependent TG2 function on OPC proliferation.
Oligodendrocyte precursor cells (OPCs) were isolated from mixed male and female P5-8 Gpr56^+/+ or Gpr56^−/− mouse forebrains as previously described (Wang et al., Neuron 29, 603-614, 2001; Watkins et al., Neuron 60, 555-569, 2008). Briefly, OPCs were purified by negatively selecting with mouse anti-Thy 1.2 (Serotec, Cat #MCA02R) and mouse anti-GalC (Millipore, Cat #MAB342), followed by mouse anti-04 (04 hybridoma supernatant) for positive selection. After releasing OPCs from the 04 plate by trypsinization, cells were resuspended in proliferation media containing PDGF-AA and NT-3 (PreproTech). OPCs were plated on coverslips coated with poly-D-lysine before coating with laminin I (R&D Systems, Cat #3400-010-01) or fibronectin (Millipore, Cat #341668) as previously described (Dugas et al., J Neurosci 26, 10967-10983, 2006). After 24 hr, TG2 (2 nM) was added to the cultures and incubated for an additional 24 hr before fixation with 4% PFA and staining for PDGFRα and Ki67.

T1 sequence (Q8K209 26-382 limits assumed): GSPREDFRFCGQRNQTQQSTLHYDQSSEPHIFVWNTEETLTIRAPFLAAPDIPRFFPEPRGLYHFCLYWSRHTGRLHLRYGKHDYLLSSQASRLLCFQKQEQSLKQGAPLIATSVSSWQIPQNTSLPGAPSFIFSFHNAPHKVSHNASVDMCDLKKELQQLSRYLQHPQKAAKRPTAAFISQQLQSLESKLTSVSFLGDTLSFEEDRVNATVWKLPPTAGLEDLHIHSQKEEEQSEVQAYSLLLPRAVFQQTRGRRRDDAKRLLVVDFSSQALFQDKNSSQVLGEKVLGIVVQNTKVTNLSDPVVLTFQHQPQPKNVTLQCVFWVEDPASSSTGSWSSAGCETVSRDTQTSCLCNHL

## Plectin (Plec): protein from mixed glial cell lysate purified with GPR56^N
GPR56^N; experiment 1
  Peptide Number (Exp1): 21
GPR56^N; experiment 2
  Peptide Number (Exp2): 22
GPR56^N; experiment 3
  Peptide Number (Exp3): 23

## biotinylated GPR56^N-mFc-biotag protein (Fc fusion)
[1]
  Peptide Number (Exp1): 21 peptides
  Peptide Number (Exp2): 22 peptides
  Peptide Number (Exp3): 23 peptides
[2]
  Peptide Number (Exp1): 19 peptides
  Peptide Number (Exp2): 20 peptides
  Peptide Number (Exp3): 17 peptides

## fibronectin [reference compound]
[3]; wt OPCs, fibronectin as specificity control in place of laminin-111, with recombinant TG2
  OPC proliferation: inert

B1: TG2-W241A: transamidation-inactive, enzymatic dead mutant TG2 protein (protein)
chain: MAEELVLERCDLELETNGRDHHTADLCREKLVVRRGQPFWLTLHFEGRNYEASVDSLTFSVVTGPAPSQEAGTKARFPLRDAVEEGDWTATVVDQQDCTLSLQLTTPANAPIGLYRLSLEASTGYQGSSFVLGHFILLFNAWCPADAVYLDSEEERQEYVLTQQGFIYQGSAKFIKNIPWNFGQFEDGILDICLILLDVNPKFLKNAGRDCSRRSSPVYVGRVVSGMVNCNDDQGVLLGRADNNYGDGVSPMSWIGSVDILRRWKNHGCQRVKYGQCWVFAAVACTVLRCLGIPTRVVTNYNSAHDQNSNLLIEYFRNEFGEIQGDKSEMIWNFHCWVESWMTRPDLQPGYEGWQALDPTPQEKSEGTYCCGPVPVRAIKEGDLSTKYDAPFVFAEVNADVVDWIQQDDGSVHKSINRSLIVGLKISTKSVGRDEREDITHTYKYPEGSSEEREAFTRANHLNKLAEKEETGMAMRIRVGQSMNMGSDFDVFAHITNNTAEEYVCRLLLCARTVSYNGILGPECGTKYLLNLNLEPFSEKSVPLCILYEKYRDCLTESNLIKVRALLVEPVINSYLLAERDLYLENPEIKIRILGEPKQKRKLVAEVSLQNPLPVALEGCTFTVEGAGLTEEQKTVEIPDPVEAGEEVKVRMDLLPLHMGLHKLVVNFESDKLKAVKGFRNVIIGPA
[3]; versus control, One-way ANOVA, Tukey post-hoc
  OPC proliferation, wild type TG2 vs enzymatic dead mutant: failed to promote OPC proliferation and n.s.

— US12358959B2, “Compositions and methods for oligodendrocyte development” (CHILDREN'S MEDICAL CENTER CORPORATION, priority 2016, dated 2025)
